Source: patent US20110166062A1 (INDIANA UNIVERSITY RESEARCH AND TECHNOLOGY, published 2011)
Bridges are numbered along the chain shown (N, C = ends). Where no end group is shown, it is not given here. [ ]: non-standard residue; d: D form. Aib = CC(C)(N)C(=O)O

T1: GIP receptor (UniProt P48546 22-466)
T1 sequence (looked up): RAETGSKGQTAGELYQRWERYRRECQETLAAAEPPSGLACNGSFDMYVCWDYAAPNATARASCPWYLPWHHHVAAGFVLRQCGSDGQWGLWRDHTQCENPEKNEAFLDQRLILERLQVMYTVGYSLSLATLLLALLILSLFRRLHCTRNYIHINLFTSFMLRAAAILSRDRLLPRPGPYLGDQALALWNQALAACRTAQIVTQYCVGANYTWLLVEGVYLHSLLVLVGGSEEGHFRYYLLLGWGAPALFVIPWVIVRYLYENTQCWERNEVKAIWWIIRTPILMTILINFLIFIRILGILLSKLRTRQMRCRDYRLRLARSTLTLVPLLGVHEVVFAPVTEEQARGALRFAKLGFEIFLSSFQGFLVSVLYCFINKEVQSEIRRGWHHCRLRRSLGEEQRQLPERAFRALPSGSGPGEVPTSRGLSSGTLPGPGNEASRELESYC

B1: mt-148 (peptide)
peptide: YSEGTFTSDYSIYLDEQAAKEFIAWLLAGGPSSGAPPPS-NH2
modifications: lactam 16-20; N-terminus assumed
SMILES: CC[C@H](C)[C@H](NC(=O)[C@H](Cc1ccccc1)NC(=O)[C@H](CCC(=O)O)NC(=O)[C@@H]1CCCCNC(=O)CC[C@H](NC(=O)[C@H](CC(=O)O)NC(=O)[C@H](CC(C)C)NC(=O)[C@H](Cc2ccc(O)cc2)NC(=O)[C@@H](NC(=O)[C@H](CO)NC(=O)[C@H](Cc2ccc(O)cc2)NC(=O)[C@H](CC(=O)O)NC(=O)[C@H](CO)NC(=O)[C@@H](NC(=O)[C@H](Cc2ccccc2)NC(=O)[C@@H](NC(=O)CNC(=O)[C@H](CCC(=O)O)NC(=O)[C@H](CO)NC(=O)[C@@H](N)Cc2ccc(O)cc2)[C@@H](C)O)[C@@H](C)O)[C@@H](C)CC)C(=O)N[C@@H](CCC(N)=O)C(=O)N[C@@H](C)C(=O)N[C@@H](C)C(=O)N1)C(=O)N[C@@H](C)C(=O)N[C@@H](Cc1c[nH]c2ccccc12)C(=O)N[C@@H](CC(C)C)C(=O)N[C@@H](CC(C)C)C(=O)N[C@@H](C)C(=O)NCC(=O)NCC(=O)N1CCC[C@H]1C(=O)N[C@@H](CO)C(=O)N[C@@H](CO)C(=O)NCC(=O)N[C@@H](C)C(=O)N1CCC[C@H]1C(=O)N1CCC[C@H]1C(=O)N1CCC[C@H]1C(=O)N[C@@H](CO)C(N)=O
B2: mt-150 (peptide)
peptide: YSQGTFISDYSIYLDEQAAKEFVNWLLAGGPSSGAPPPS-NH2
modifications: lactam 16-20; N-terminus assumed
SMILES: CC[C@H](C)[C@H](NC(=O)[C@H](CO)NC(=O)[C@H](Cc1ccc(O)cc1)NC(=O)[C@H](CC(=O)O)NC(=O)[C@H](CO)NC(=O)[C@@H](NC(=O)[C@H](Cc1ccccc1)NC(=O)[C@@H](NC(=O)CNC(=O)[C@H](CCC(N)=O)NC(=O)[C@H](CO)NC(=O)[C@@H](N)Cc1ccc(O)cc1)[C@@H](C)O)[C@@H](C)CC)C(=O)N[C@@H](Cc1ccc(O)cc1)C(=O)N[C@@H](CC(C)C)C(=O)N[C@@H](CC(=O)O)C(=O)N[C@H]1CCC(=O)NCCCC[C@@H](C(=O)N[C@@H](CCC(=O)O)C(=O)N[C@@H](Cc2ccccc2)C(=O)N[C@H](C(=O)N[C@@H](CC(N)=O)C(=O)N[C@@H](Cc2c[nH]c3ccccc23)C(=O)N[C@@H](CC(C)C)C(=O)N[C@@H](CC(C)C)C(=O)N[C@@H](C)C(=O)NCC(=O)NCC(=O)N2CCC[C@H]2C(=O)N[C@@H](CO)C(=O)N[C@@H](CO)C(=O)NCC(=O)N[C@@H](C)C(=O)N2CCC[C@H]2C(=O)N2CCC[C@H]2C(=O)N2CCC[C@H]2C(=O)N[C@@H](CO)C(N)=O)C(C)C)NC(=O)[C@H](C)NC(=O)[C@H](C)NC(=O)[C@H](CCC(N)=O)NC1=O
B3: mt-147 (peptide)
peptide: YSQGTFTSDYSIYLDEQAAKEFIAWLLAGGPSSGAPPPS-NH2
modifications: lactam 16-20; N-terminus assumed
SMILES: CC[C@H](C)[C@H](NC(=O)[C@H](Cc1ccccc1)NC(=O)[C@H](CCC(=O)O)NC(=O)[C@@H]1CCCCNC(=O)CC[C@H](NC(=O)[C@H](CC(=O)O)NC(=O)[C@H](CC(C)C)NC(=O)[C@H](Cc2ccc(O)cc2)NC(=O)[C@@H](NC(=O)[C@H](CO)NC(=O)[C@H](Cc2ccc(O)cc2)NC(=O)[C@H](CC(=O)O)NC(=O)[C@H](CO)NC(=O)[C@@H](NC(=O)[C@H](Cc2ccccc2)NC(=O)[C@@H](NC(=O)CNC(=O)[C@H](CCC(N)=O)NC(=O)[C@H](CO)NC(=O)[C@@H](N)Cc2ccc(O)cc2)[C@@H](C)O)[C@@H](C)O)[C@@H](C)CC)C(=O)N[C@@H](CCC(N)=O)C(=O)N[C@@H](C)C(=O)N[C@@H](C)C(=O)N1)C(=O)N[C@@H](C)C(=O)N[C@@H](Cc1c[nH]c2ccccc12)C(=O)N[C@@H](CC(C)C)C(=O)N[C@@H](CC(C)C)C(=O)N[C@@H](C)C(=O)NCC(=O)NCC(=O)N1CCC[C@H]1C(=O)N[C@@H](CO)C(=O)N[C@@H](CO)C(=O)NCC(=O)N[C@@H](C)C(=O)N1CCC[C@H]1C(=O)N1CCC[C@H]1C(=O)N1CCC[C@H]1C(=O)N[C@@H](CO)C(N)=O
B4: mt-149 (peptide)
peptide: YAEGTFTSDYSIYLDEQAAKEFVNWLLAGGPSSGAPPPS-NH2
modifications: lactam 16-20; N-terminus assumed
SMILES: CC[C@H](C)[C@H](NC(=O)[C@H](CO)NC(=O)[C@H](Cc1ccc(O)cc1)NC(=O)[C@H](CC(=O)O)NC(=O)[C@H](CO)NC(=O)[C@@H](NC(=O)[C@H](Cc1ccccc1)NC(=O)[C@@H](NC(=O)CNC(=O)[C@H](CCC(=O)O)NC(=O)[C@H](C)NC(=O)[C@@H](N)Cc1ccc(O)cc1)[C@@H](C)O)[C@@H](C)O)C(=O)N[C@@H](Cc1ccc(O)cc1)C(=O)N[C@@H](CC(C)C)C(=O)N[C@@H](CC(=O)O)C(=O)N[C@H]1CCC(=O)NCCCC[C@@H](C(=O)N[C@@H](CCC(=O)O)C(=O)N[C@@H](Cc2ccccc2)C(=O)N[C@H](C(=O)N[C@@H](CC(N)=O)C(=O)N[C@@H](Cc2c[nH]c3ccccc23)C(=O)N[C@@H](CC(C)C)C(=O)N[C@@H](CC(C)C)C(=O)N[C@@H](C)C(=O)NCC(=O)NCC(=O)N2CCC[C@H]2C(=O)N[C@@H](CO)C(=O)N[C@@H](CO)C(=O)NCC(=O)N[C@@H](C)C(=O)N2CCC[C@H]2C(=O)N2CCC[C@H]2C(=O)N2CCC[C@H]2C(=O)N[C@@H](CO)C(N)=O)C(C)C)NC(=O)[C@H](C)NC(=O)[C@H](C)NC(=O)[C@H](CCC(N)=O)NC1=O
B5: mt-152 (peptide)
peptide: Y[Aib]QGTFTSDYSIYLDEQAAKEFVNWLLAGGPSSGAPPPS-NH2
modifications: lactam 16-20; N-terminus assumed
SMILES: CC[C@H](C)[C@H](NC(=O)[C@H](CO)NC(=O)[C@H](Cc1ccc(O)cc1)NC(=O)[C@H](CC(=O)O)NC(=O)[C@H](CO)NC(=O)[C@@H](NC(=O)[C@H](Cc1ccccc1)NC(=O)[C@@H](NC(=O)CNC(=O)[C@H](CCC(N)=O)NC(=O)C(C)(C)NC(=O)[C@@H](N)Cc1ccc(O)cc1)[C@@H](C)O)[C@@H](C)O)C(=O)N[C@@H](Cc1ccc(O)cc1)C(=O)N[C@@H](CC(C)C)C(=O)N[C@@H](CC(=O)O)C(=O)N[C@H]1CCC(=O)NCCCC[C@@H](C(=O)N[C@@H](CCC(=O)O)C(=O)N[C@@H](Cc2ccccc2)C(=O)N[C@H](C(=O)N[C@@H](CC(N)=O)C(=O)N[C@@H](Cc2c[nH]c3ccccc23)C(=O)N[C@@H](CC(C)C)C(=O)N[C@@H](CC(C)C)C(=O)N[C@@H](C)C(=O)NCC(=O)NCC(=O)N2CCC[C@H]2C(=O)N[C@@H](CO)C(=O)N[C@@H](CO)C(=O)NCC(=O)N[C@@H](C)C(=O)N2CCC[C@H]2C(=O)N2CCC[C@H]2C(=O)N2CCC[C@H]2C(=O)N[C@@H](CO)C(N)=O)C(C)C)NC(=O)[C@H](C)NC(=O)[C@H](C)NC(=O)[C@H](CCC(N)=O)NC1=O

The binders below were run against T1, GIP receptor (assay: cell-based or functional assay).

First: B1
Second: B2
The “EC50” value of the first is 2.4-fold lower: 95 pM for the first, 232 pM for the second.

First: B3
Second: B4
The “EC50” value of the first is 2.1-fold higher: 144 pM for the first, 68 pM for the second.

In the case of B5, the “EC50” value is reported as 87 pM.

Compared with B1, B2 is lower in relative activity: 65.3% for the first, 26.7% for the second.

Compared with B3, B4 is higher in relative activity: 43.1% for the first, 91.2% for the second.

For B5, the relative activity was 41.2%.

These binders were tested against glucagon receptor (UniProt P47871 26-477, limits assumed) (assay: cell-based or functional assay).
Sequence of glucagon receptor (P47871 26-477 limits assumed): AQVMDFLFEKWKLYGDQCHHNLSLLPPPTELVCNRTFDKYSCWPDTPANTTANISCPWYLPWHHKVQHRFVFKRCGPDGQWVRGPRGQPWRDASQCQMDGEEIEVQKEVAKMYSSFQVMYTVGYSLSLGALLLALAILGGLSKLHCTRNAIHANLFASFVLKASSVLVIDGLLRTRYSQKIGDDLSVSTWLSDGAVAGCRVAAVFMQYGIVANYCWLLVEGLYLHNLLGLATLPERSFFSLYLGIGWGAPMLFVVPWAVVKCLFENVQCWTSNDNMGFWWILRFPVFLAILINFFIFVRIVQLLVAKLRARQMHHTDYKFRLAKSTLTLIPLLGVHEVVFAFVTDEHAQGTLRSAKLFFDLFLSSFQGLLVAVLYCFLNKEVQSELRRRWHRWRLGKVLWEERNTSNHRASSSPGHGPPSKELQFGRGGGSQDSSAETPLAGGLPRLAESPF

Going from B1 to B2, the “EC50” value falls from 4910 pM to 36 pM (140-fold).

Compared with B3, B4 is 140-fold higher in “EC50” value: 116 pM for the first, 16300 pM for the second.

With B5 the “EC50” value was 293 pM.

Going from B1 to B2, the relative activity rises from 2.14% to 317%.

Going from B3 to B4, the relative activity falls from 90.5% to 0.64%.

In the case of B5, the relative activity is reported as 36.5%.

Each binder was assayed against GLP-1 receptor (UniProt P43220 24-463, limits assumed) (assay: cell-based or functional assay).

First: B1
Second: B2
The “EC50” value of the first is 35-fold lower: 98 pM for the first, 3470 pM for the second.

Going from B3 to B4, the “EC50” value falls from 105 pM to 36 pM (2.9-fold).

For B5, the “EC50” value was 16 pM.

First: B1
Second: B2
The relative activity of the first is higher: 36.2% for the first, 1.09% for the second.

Compared with B3, B4 is higher in relative activity: 33.9% for the first, 97.5% for the second.

Binder B5 has a relative activity of 169%.
